# Laboratory results as given in US5698519A, “Polypeptide specifically inhibiting cathepsin L” (Taiho Pharmaceutical Co., Ltd., priority 1993, dated 1997).
# How the values were obtained:
# [1] = target: papain; experiment: Enzymatic inhibitory activity against papain (kinetic analysis, Z-Phe-Arg-AMC substrate); type: biochemical; settings: papain 380 pM, substrate Z-Phe-Arg-AMC 5 μM, 0.1M phosphate buffer pH 6.0
# Method: (§1) The inhibitory activity of Elstatin (polypeptide of the present invention) against papain and cathepsin L was measured by the method of Barrett, A. J. and Kirschke, H. described in Method Enzymol., 80, 535-561 (1981) using Bz--DL--Arg-2-naphthylamide or Z--Phe--Arg--MCA as a substrate (Bz, Z and AMC represent benzoyl, benzyloxycarbonyl, and 4-methyl-7-coumarylamide).
# (§2) The active site of the enzyme was titrated using a cysteine protease inhibitor Ep-475 (L-3-carboxy-trans-2,3-epoxypropyl-leucylamide-(3-guanizino)butane). Papain which had undergone the titration of active site was used to determine the molarity of the inhibitor (Turk, B. et al. J. Biol. Chem. 268, 7323-7329 (1993)).
# (§3) The rate of the reaction employing Z--Phe--Arg--AMC as a substrate was determined by the kinetic analysis of Elstatin, papain, and cathepsin L. Different concentrations of Elstatin and a substrate (papain: 5 μM, cathepsin L: 10 μM) were dissolved in 1.97 ml of a buffer solution described above. In the measurement of cathepsin L, 0.34M acetate buffer (pH 5.5) containing 2 mM dithiothreitol and 1.5 mM EDTA was used. The reaction was started by the addition of 30 μl of activated papain (final concentration: 380 pM) and cathepsin L (final concentration: 60 pM). […] The obtained data were analysed by a non-linear regression analysis of Morrison (Trends Biochem. Sci. 7, 102-105 (1982)).
# [2] = target: cathepsin B; experiment: Enzymatic inhibitory activity against cathepsin B (stopped assay); type: biochemical; settings: cathepsin B 130 nM, Elstatin 50-750 nM, pH 6.0, 25° 20 minutes, Bz-DL-Arg-2-naphthylamide
# Method: (§4) Equilibrium dissociation constant (Ki) of Elstatin and cathepsin B and H was determined using stopped assay method. In detail, cathepsin B (final concentration: 130 nM) and cathepsin H (final concentration: 25 nM) were incubated together with different concentrations of Elstatin (final concentration: 50-750 nM) in 0.1M phosphate buffer (pH 6.0) containing 2 mM of dithiothreitol and 1.5 mM of EDTA at 25° for 20 minutes. The residual activity was determined using Bz--DL--Arg-2-naphthylamide as a substrate conditions identical to those according to Barrett, A. J. and Kirschke, H. mentioned above. The value Ki was calculated using a method of Henderson (Biochem. J. 127, 321-333 (1972)).
# [3] = target: cathepsin H; experiment: Enzymatic inhibitory activity against cathepsin H (stopped assay); type: biochemical; settings: cathepsin H 25 nM, Elstatin 50-750 nM, pH 6.0, 25° 20 minutes, Bz-DL-Arg-2-naphthylamide
# Method: as §4
# [4] = target: cathepsin L; experiment: Enzymatic inhibitory activity against cathepsin L (kinetic analysis, Z-Phe-Arg-AMC substrate); type: biochemical
# Method: as §1, §2, §3
# [5] = tested on: unfractionated bone cells (osteoclastic bone resorption); experiment: Bone resorption inhibitory action (pit formation on ivory slices, parathyroid hormone induced); type: cell-based, Sprague-Dawley rats; settings: 50 nM human parathyroid hormone, 72 hours, FIG. 1
# Method: A method proposed by McSheehy, P. M. J. and Chambers, T. J. in J Clin. Invest., 80, 425-429 (1987) was partly modified and applied.
# Unfractionated bone cells were prepared from tibiae, femora and humeri of 1 to 2 day-old Sprague-Dawley rats. The bones were dissected into soft tissues in an ice-cold medium (pH 7.2) [α-minimum essential medium (α-MEM) (Flow Laboratories, McLean, Va.), supplemented with 100 IU/ml of benzylpenicillin] containing 20 mM N-2-hydroxyethyl-piperazine-N'-ethanesulfonic acid (HEPES). In order to prepare a bone cell preparation, long bones were minced with a pair of scissors in the same medium. Subsequently, the cell suspension was triturated with a wide bored plastic pipette. 200 μl of cell suspension (1×10^6 cells/ml) was added to each well of a 96 well-plate containing an ivory slice (thickness: 150 μm, diameter: 6 mm; ultrasonicated and disinfected with 75% ethanol), and the cells were incubated at 37° C. for 2 hours in a CO2 incubator (5% CO2 : 95% air). The slices were washed with α-MEM, and transferred to a HEPES-free fresh medium containing 10% FBS, each of test samples of various concentrations and 50 nM of human parathyroid hormone (Peninsula Laboratories Inc., Belmond, Calif.) and incubated for 72 hours. […] The total area of pits was measured under a microscope to detect possible osteoclastic bone resorption.
molecule,measurement,setting,value
Elstatin: Novel 103-residue polypeptide (Sequence No. 1) isolated from pig leucocyte cytosol; specifically inhibits cathepsin L (protein) MESEEMLAGGLTEPRPATPEIQEIANKVKPQLEEKTNKTYEKFEAIIYRSQVVAGTNYYIKVHVGGNNYVHIRVFQSLPHQEDPLKLIGYQVDKTKDDELTGF,Ki,[1],0.19 ± 0.097 nM
same,Ki,[2],335 ± 50 nM
same,Ki,[3],125 ± 7 nM
same,Ki,"[4]; cathepsin L 60 pM, substrate Z-Phe-Arg-AMC 10 μM, 0.34M acetate buffer pH 5.5",0.067 ± 0.036 nM
same,Specificity of inhibition among the cathepsin group,[4]; cathepsin L versus cathepsins B and H,specifically inhibits only cathepsin L among the members of the cathepsin group
same,Bone resorption inhibitory action (total area of pits),[5],significantly potent bone resorption inhibitory action
